From patent US20080269139A1 (GENENCOR INTERNATIONAL, published 2008) come the findings set out here.

Sequences and labels used below:
T1: FGF-5 (UniProt P12034 23-268, limits assumed, biotinylated with EZ-Link Sulfo-NHS-Biotin in the BioVeris assay only)
T1 construct: also called bFGF5 (biotinylated, BioVeris assay); FGF-5, carrier-free (R&D Systems #237-F5/CF)
T1 sequence (looked up): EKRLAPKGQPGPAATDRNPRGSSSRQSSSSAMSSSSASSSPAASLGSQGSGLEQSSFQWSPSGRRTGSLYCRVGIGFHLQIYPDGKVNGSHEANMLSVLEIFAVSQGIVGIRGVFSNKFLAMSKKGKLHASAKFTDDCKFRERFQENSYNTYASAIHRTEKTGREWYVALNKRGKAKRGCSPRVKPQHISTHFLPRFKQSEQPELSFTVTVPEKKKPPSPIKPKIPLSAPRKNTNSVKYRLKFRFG

B1: 2H9 peptide-BLA fusion (other)
chain: CHYLLTNYCTPVSEKQLAEVVANTITPLMKAQSVPGMAVAVIYQGKPHYYTFGKADIAANKPVTPQTLFELGSISKTFTGVLGGDAIARGEISLDDAVTRYWPQLTGKQWQGIRMLDLATYTAGGLPLQVPDEVTDNASLLRFYQNWQPQWKPGTTRLYANASIGLFGALAVKPSGMPYEQAMTTRVLKPLKLDHTWINVPKAEEAHYAWGYRDGKAVRVSPGMLDAQAYGVKTNVQDMANWVMANMAPENVADASLKQGIALAQSRYWRIGSMYQGLGWEMLNWPVEANTVVEGSDSKVALAPLPVAEVNPPAPPVKASWVHKTGSTGGFGSYVAFIPEKQIGIVMLANTSYPNPARVEAAYHILEALQHHHHHH
B2: 1A6 peptide-BLA fusion (other)
chain: CEEIWTMLCTPVSEKQLAEVVANTITPLMKAQSVPGMAVAVIYQGKPHYYTFGKADIAANKPVTPQTLFELGSISKTFTGVLGGDAIARGEISLDDAVTRYWPQLTGKQWQGIRMLDLATYTAGGLPLQVPDEVTDNASLLRFYQNWQPQWKPGTTRLYANASIGLFGALAVKPSGMPYEQAMTTRVLKPLKLDHTWINVPKAEEAHYAWGYRDGKAVRVSPGMLDAQAYGVKTNVQDMANWVMANMAPENVADASLKQGIALAQSRYWRIGSMYQGLGWEMLNWPVEANTVVEGSDSKVALAPLPVAEVNPPAPPVKASWVHKTGSTGGFGSYVAFIPEKQIGIVMLANTSYPNPARVEAAYHILEALQHHHHHH
B3: 2E2 peptide-BLA fusion (other)
chain: CLTVLWTTCTPVSEKQLAEVVANTITPLMKAQSVPGMAVAVIYQGKPHYYTFGKADIAANKPVTPQTLFELGSISKTFTGVLGGDAIARGEISLDDAVTRYWPQLTGKQWQGIRMLDLATYTAGGLPLQVPDEVTDNASLLRFYQNWQPQWKPGTTRLYANASIGLFGALAVKPSGMPYEQAMTTRVLKPLKLDHTWINVPKAEEAHYAWGYRDGKAVRVSPGMLDAQAYGVKTNVQDMANWVMANMAPENVADASLKQGIALAQSRYWRIGSMYQGLGWEMLNWPVEANTVVEGSDSKVALAPLPVAEVNPPAPPVKASWVHKTGSTGGFGSYVAFIPEKQIGIVMLANTSYPNPARVEAAYHILEALQHHHHHH
B4: 2H10 peptide-BLA fusion (other)
chain: CRIHLAHKCTPVSEKQLAEVVANTITPLMKAQSVPGMAVAVIYQGKPHYYTFGKADIAANKPVTPQTLFELGSISKTFTGVLGGDAIARGEISLDDAVTRYWPQLTGKQWQGIRMLDLATYTAGGLPLQVPDEVTDNASLLRFYQNWQPQWKPGTTRLYANASIGLFGALAVKPSGMPYEQAMTTRVLKPLKLDHTWINVPKAEEAHYAWGYRDGKAVRVSPGMLDAQAYGVKTNVQDMANWVMANMAPENVADASLKQGIALAQSRYWRIGSMYQGLGWEMLNWPVEANTVVEGSDSKVALAPLPVAEVNPPAPPVKASWVHKTGSTGGFGSYVAFIPEKQIGIVMLANTSYPNPARVEAAYHILEALQHHHHHH

The target of this experiment is T1, FGF-5. The experiment can be described thus: BLA binding assay, purified peptide-BLA fusion on FGF-5-coated plate, nitrocefin.
With B1, the “Percent Bound at 0.1 nM” value is 5%.

Regarding B2, the “Percent Bound at 0.1 nM” value came to 8%.

As to B3, the “Percent Bound at 0.1 nM” value was found to be 7%.

As to B4, the “Percent Bound at 0.1 nM” value worked out at 8%.
